Source: patent US20240279324A1

Biological target: VEGF (human) (UniProt P15692)
Experiment: VEGF blocking assay (luminescence)

Sequence of VEGF (human) (P15692 other isoform, or with tags, fused parts or gaps): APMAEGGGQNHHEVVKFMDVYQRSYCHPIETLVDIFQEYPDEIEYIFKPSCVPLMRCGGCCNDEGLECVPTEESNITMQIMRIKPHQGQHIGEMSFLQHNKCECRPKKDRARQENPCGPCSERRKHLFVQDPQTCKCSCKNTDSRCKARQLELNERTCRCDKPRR

Question: Which IC50 does the source give for Avastin here?
Answer: The IC50 was 0.107 nM.
